The values below come from the DeepSol protein solubility set.

The nature of this data set: soluble on expression in E. coli; label from the status in PepcDB or PDB records.
Consider “WRKKRKDAKNNEVSFSQIKPKKSKLIRVENFEAYFKKQQADSNCGFAEEYEDLKLIGISLPKYAAEIAENRGKNRYNNVLPYDISRVKLSVQTHSTDDYINANYMPGYHSKKDFIATQGPLPNTLKDFWRMVWEKNVYAIVMLTKCVEQGRTKCEEYWPSKQAQDYGDITVAMTSEVVLPEWTIRDFVVKNMQSSESHPLRQFHFTSWPDHGVPDTTDLLINFRYLVRDYMKQIPPESPILVHCSAGVGRTGTFIAIDRLIYQIENENTVDVYGIVYDLRMHRPLMVQTEDQYVFLNQCVLDIIRAQKDSKVDLIYQNTTAMTIYENLERVSMFGKANGYIA”, for which the “soluble on expression in E. coli” value is “soluble”.
The result for “MSLSVEFNKQQVRPRSEISPQDCWDITPLYLNRKAWKADLDSFGLKTDGSPTWPALQATQYQLDNSESLLSLLTTLFSIERKLNKLYVYAHLTHDQDITNQEGIADLKSITHLHTLFAEETSWVQPALTSLSESLIAQHLSAPCLAPYRFYLEKIFRLSIHTGTPGEEKILASAFTPLEVASKAFSSLSDSEIPFGQATDSEGNSHPLSHALASLYMQSTDRELRKTSYLAQCERYHSYRHTFANLLNGKIQAHVFYAKNKRYNSCLQAALYHNNIPTTVYTNLIDIVKKNSSLITKYFSIKQRCLNLKDFHFYDVYAPLSQSKEKKYTFQEAVDLIYTSLSPLGTEYIDTLKQGLTTQGWVDKYENLNKRSGAYSSGCYDSHPYVLLNYTGTLYDVSVIAHEGGHSMHSYFSRKHQPFHDAQYPIFLAEIASTLNEMLLMDSMLKESDSKEEKITILTRCLDTIFSTLFRQVLFASFEYDIHHAAEHGVPLTEEYLSSTYKNLQNEFYGEIITFDVLSNIEWARIPHFYYNFYVYQYATGIIAALCFLEKILNNEDNALNSYLNFLKSGGSDFPLEILKKSGLDMGTVEPIQKAFCFIEKKIQELSSLIEGHHHHHH” reads “soluble”.
Then “NIPEIENANLKPALKDSVLPDGFYSTTNHPTHVKVNDEWIEVANPKMDAVIVVYPEEKRAETKVIRKVKKGDFVLIGHNGIRVMPPEKSREAGQLFEFMNSEVSSEKPKEAIIKRIAKEMHEIREEYKKTGTGGIAIVGGPAIIHTGGGPALAKMVELGYIQAILAGNALATHDIESALYGTSLGVNIKTAKPVTGGHKHHIYAINAINDAGNIKNAVESGVLKEGIMYQCIKNNIPYVLAGSIRDDGPIPDVITDSMVAQDKMRTTVMDKKMVIMLSTLLHSVATGNLMPSYIKTVCVDIQPSTVTKLMDRGTSQAIGVVTDVGVFLVLLLKELER”, with “not soluble”.
Then “MTTDAAVAELLALGELTVRGRIRDASNAALYCTVTHEGREAACVYKPVAGERPLWDFPDGTLAQREVAAYEVSEATGWGLVPPTVLRDGPYGEGMVQLWIETVPETELLALVDEEEPGPGWKGIALAEVGEGRTALLVHADDERLRRLAVLDAVINNADRKGGHLLPAAGERLYGIDHGVTFNAENKLRTLLWGWAGDALTGEALAVLDALRRALKDGGTLALRLAALITPAELDATRARVDALLASGKHPEPGGEWPAIPWPPVLEHHHHHH”, with “not soluble”; and “MGSDKIHHHHHHMVMERGEIIGIVLQKSEANEMQGLIRADEEISVGQLLLVDDSEKLSLVRVENYEFLNEFFDEKGEIAKSILKEPSIYEILDMNTIIKATLHLIKKYDHNTTPKPGSFVRRLPEIKSEKELLSFYGIKNKKGLIEYGALAGSEIPLLLDLNAITMHMGVFGETGSGKSYNMRYLIKLLSNIKIGDKITALPMIVIDANGDYIDLASTNLDIVSKGRGWIKRYILKDPKEQNDIKLTIDLSIFTPRELSEFIMSLKYGEASYNTLQLNFLEQVLANHESKEYNTLLGSAIGIETLRNEILTMAQNKDIGITTGTARGIASALEIFKNKVISRLQLVNSSASLTENTLEVIWRNRGLAIIDFSADGSPGVDVLTKQLIVSYITRLIFNYLTRSKYNGNQRFLGFVIEEAQNYIPSIDYPVNANLTKDVLVTLATQGRKFGASLILVSQRPAFIDKYVLSMINTFFFHRIYHEDVRYVMSASGGLPESLTKNLTSLDTGYVIVSGLMSIMKSPALVRIPWDPRLGSYAGNVERIDLILSEG”, with “not soluble”.
Regarding “MSLSQIISSNDVDFQAYMAEAEPQAKVLAAEAWRDDLVRTVEHGDQITGAKLPWSKTHDLLRFRPGEVTLWQGINGHGKSELLGQACIGFATQGERVCIASFEMKPQATLKRMLRQTAMNARPGVQAVDRLIDWSRDRLWLYDQQGTVTPAMLYAVIRYCADRLKVRHMVIDSLMKCVRGEDDYNGQKDFVDMLCTLARDLRMHIHLVHHAKKGENEDQVPGKFSAKGSGAIVDQVDQMLTVWRNKKKERIAEAELRKDGEVSADTHDSPDTLLICDKNRHGEWEGRIQLWRHADSLQFTGDKRRQPLDMIGALAEGHHHHHH”, the “soluble on expression in E. coli” value was “soluble”.
Then “AKITKVQVGEALVGDGNEVAHIDLIIGPRGSPAETAFCNGLVNNKHGFTSLLAVIAPNLPCKPNTLMFNKVTINDARQAVQMFGPAQHGVAMAVQDAVAEGIIPADEADDLYVLVGVFIHWEAADDAKIQKYNYEATKLSIQRAVNGEPKASVVTEQRKSATHPFAANA”, with “soluble”.
Then “MGKYDALVELLLEAVKEGANIHQEDCSIPVGISNRHIHLSQADVNTLFGEGYSLTRIKDLSQPGQYACKETLTICGPKGAIENVRILGPERRESQVEILRTDCFKLGLKAPVKLSGELQGTPGMTLVGPKGSVLLSQGVIVAQRHIHMSLEDAQRFGVRDGELVTIQINGLRGGTYANVAIRANNTSQLECHIDTDEANGMDLTPTSRITIIK”, with “not soluble”.
Consider “MGFLKGKKGLIVGVANNKSIAYGIAQSCFNQGATLAFTYLNESLEKRVRPIAQELNSPYVYELDVSKEEHFKSLYNSVKKDLGSLDFIVHSVAFAPKEALEGSLLETSKSAFNTAMEISVYSLIELTNTLKPLLNNGASVLTLSYLGSTKYMAHYNVMGLAKAALESAVRYLAVDLGKHHIRVNALSAGPIRTLASSGIADFRMILKWNEINAPLRKNVSLEEVGNAGMYLLSSLSSGVSGEVHFVDAGYHVMGMGAVEEKDNKATLLWDLHKEQ”, for which the “soluble on expression in E. coli” value is “soluble”.
Then “MGSDKIHHHHHHMELRPDLLFLDVELPDVLGLNLLSEMRDEVLWDMKVVFYTSYDKYLLQALRESAFDFLLKPFETGDLRVVIERYRKAVASIPATPSSSFSSSVSALMPQQGMFMISTVTGFKLLRLEEIGYFEYLKDKRQWQVVLFNQTRLNLKRNTKAEDIIGYSQAFIQISQSAIVNVNYLAMIDGKCCQLYPPFHDKSDLVISRSFLKGLQDRFFVL”, with “not soluble”; and “MAKVVSKANQSQGMLMFKLTLQQNFAIGTLKVREIVPYMPTTKIPYSHHHVIGTVTIRDLTVPVIDMSAAVGFRPITQEEYKNCYLIVTDCLRTVVAFMVRSIEKIIECDWKAIETPPASAGKNIFVTGITRYGDQTVQMLDVELLLSKIYPQYENANIPMLTDVERERLKA”, with “not soluble”.
Then “MGSDKIHHHHHHAAVKKIIEMGQNDNQVMHQLDILTNRFGGRLIGSDAYENAAEWMVREFKSWGLDVQLEEAGTVPVGFNRGPWFGRLLSDNGMILHFATPSYTSGTKGVQRGHAVMEPRNDEEFQQIKGRLNGAWVLISGKNVGWPIDRSASGDSIRAEIKKENNEIMKKNNDLRRRNWENGEKNEMLPYKEFPGLYYKEMCEAGALGFIQSSTVPIRALYDRKMMNDPNTNFDNLPELPDIKLDEHQFAIIEQMVKERRTFELEFDIRNHFKLGPVKYHNVVASIKGSKYPDEYVIISGHLDAFDVATGGIDCGTGIGPMMEAARMIAKSGAKPKRTILFIGFAGEEFGLLGAQAWVKAHKDKLPKIANLFNRDGGPEPPVGISVPQAMYDDFVKISEPIQKIRPDYPFEVKVREPRKRPTRMGGTDASVFAIEGVPTLGFTTEDFKGYDFDYGEIWHTERDLYTKNIPEYQEHTATVTAIIALGVANLDKQLSREGLYTEE”, with “not soluble”.
Then “MLIISNAVHLPDHEIELNAIRAQGAGGQNVNKVSSAVHLRFDIQASSLPPFYKERLLALNDQRISGDGVVVIKAQQYRTQEQNREDALERLAELIRSVAKVQKARRPTKPTRGSQKRRLDGKAKRGAVKAGRGKVDFLEHHHHHH”, with “not soluble”; and “MRLDHLRLQNFRCYEDAHFDFQPGFNLVVGVNGSGKTSLLLGVAECLIPYGNAMGQGQEILSKEDVRFVIDRHEGRSRFERKFPVFIRADGDIFDLPNWRAVRLLEPWEGGVDPSSLSHLSAVLARNNAGEQIDFPVLAFYRANRRWSSARISAEFAAQQRTSRFDGYANWFDAVADLRDFESWLIARTLERLQDRLDSTPTVEREDELEWVNRAIRLAIPDAHDLRYDLRLQSLLVDMGEGNAVPFHELSDGQRSLIALIADIARRMCVLNPHIGKDVLANTGGIVIIDELDIHLHPAWQRNIAPTLKKAFPKVQFIATSHSPQVIGSLQPGEVILLKNGDSSHPRATYGLDSSTILEEVMGVPQREPEIEVLLDELFSTLENNELEKARLQLDALKKKAPDLPEFAGAEALLKRKELIGRLEHHHHHH”, with “soluble”.
For “MSALPPVYSFPPLYTRQPNSLTRRQQISTWIDIISQYCKTKKIWYMSVDGTVINDNELDSGSTDNDDSKKISKNLFNNEDIQRSVSQVFIDEIWSQMTKEGKCLPIDQSGRRSSNTTTTRYFILWKSLDSWASLILQWFEDSGKLNQVITLYELSEGDETVNWEFHRMPESLLYYCLKPLCDRNRATMLKDENDKVIAIKVV”, the “soluble on expression in E. coli” value is recorded as “soluble”.
Consider “QVQLQQSGPELVKPGALVKISCKASGYTFTNYDINWVKQRPGQGLEWIGWIYPGDGSTMYNEKFKGKATLTADKSSSTAYMQLSSLTSENSSVYFCARLDGNYGGWFAYWGQGTSVTVSSAKTTPPSVYPLAPVCGDTTGSSVTLGCLVKGYFPEPVTVTWNSGSLSSGVHTFPAVLQSDLYTLSSSVTVPSSTWPSETVTCNVAHPASSTKVDKKIVP”, for which the “soluble on expression in E. coli” value is on record as “soluble”.
Then “MGSDKIHHHHHHMIKCIDVNDLKVGMYIHDLNCDWMSHPFLVNRFKVKDESEIRKIADAGIHEVYIDTRKGMDLPSARSEGEVRKQLESELREIASRERTVTRHVEAAEEFGRAQTIHHEANQIIRDILQDVRLGKQVELEQVEPQVEKLTGSILRNGGALLSLCRIKDKDNYTFQHSVSVGALMVSFCNALGMSKEVIHHAGIGGMLHDIGKMKVPDSILNKPGKLTEQEFMVMKCHVVESQKILHATRGISETAVLVAGQHHERHDGSGYPAGLKGEEISQLGQMAAIVDVYDALTSNRCYHKGMPPTDALRKIYEWSKFHFNPELVQAFMRVIGIYPVGTLVRLESGRLGVVVEQNEDNLVSPKVKVFFSTKSNTHIPPEVVDLSRRMGFGGGDRIVKHESPEKWKIDPLRFL”, with “not soluble”; and “MANFESSVKVIPYSQERVYAKLSDLSNLESVKGRLPEDKIQDLSFDSDTLSFSVSPIGQLTLQIVEREPCKCIKLATTNSPLPFNMWIQLVSTAEEECKLKVTISMDINPFMKAMVQKPLQDGLEKMVEMLSMINYLEHHHHHH”, with “soluble”.
The result for “MPKWGNINERRNQLHEVIRLSGMNLIIDDTDHPLIIKVASIQSARMQVYFIDNDDYFQNRLQTADENGVEYDDNDSRAIFYARGVLETVKKLRWCPDVIHCHGWMTALAPLYIKKAYKDEPSFRDAKVVFSVYEDDFKNTLSEDFATKLMLKGITKKDLAGLKEPVDYAALCKLAVDYSDGIIQNSAKVDESIIEYARQSGKLVLDYQDPENYANACNEFYDQVWETTTNKEEELEHHHHHH” reads “soluble”.
